According to article PMC8035321:

Molecular target: mouse MOCCI^FLAG (Modulator of cytochrome C oxidase during Inflammation, FLAG-tagged) (mouse)
Test: co-IP; anti-FLAG M2 beads on total mouse heart mitochondria (AAV-MOCCI; AAV-GFP as negative control) solubilised with 1% digitonin in IP buffer (50 mM HEPES-KOH, 150 mM NaCl, 1 mM EDTA, pH 7.4), 4 °C; elution with 3X FLAG peptide; immunoblotting

enrichment in the anti-FLAG immunoprecipitate: 231%
Substance: MTCO-1, the catalytic subunit of CIV (cytochrome C oxidase) (from UniProt P00397 1-514) (natural protein)
